Reference: patent US20230129258A1 (Bicycle, published 2023)
Starred links: 1 amine or outer side, 2 acyl side, 3 side chain; linkers in the order of their positions; H or OH if unused. Positions of bridges follow the written chain, without caps; N, C: chain ends. Non-standard residues stand in square brackets, D forms with d. Chains are numbered I, II in the order given. No end group written: not given here. dLys(PYA) = D-lysine Nε-acylated with 4-pentynoic acid, clicked (triazole) to the linker azide, O=C(CCc1cn([*:3])nn1)NCCCC[C@@H](N[*:1])C(=O)[*:2]; TATA = O=C(CC[*:1])N1CN(C(=O)CC[*:2])CN(C(=O)CC[*:3])C1; 1Nal = N[C@@H](Cc1cccc2ccccc12)C(=O)O; Hyp = O=C(O)[C@@H]1C[C@@H](O)CN1; hArg = N=C(N)NCCCC[C@H](N)C(=O)O; tBuAla = CC(C)(C)C[C@H](N)C(=O)O; Nle = CCCC[C@H](N)C(=O)O

Columns and labels:
[1] = target: T1, Nectin-like-3 (4290-S4-050, R&D Systems) (UniProt Q8N3J6 25-367, biotinylated); assay: SPR, biotinylated target on streptavidin surface
T1 sequence (looked up): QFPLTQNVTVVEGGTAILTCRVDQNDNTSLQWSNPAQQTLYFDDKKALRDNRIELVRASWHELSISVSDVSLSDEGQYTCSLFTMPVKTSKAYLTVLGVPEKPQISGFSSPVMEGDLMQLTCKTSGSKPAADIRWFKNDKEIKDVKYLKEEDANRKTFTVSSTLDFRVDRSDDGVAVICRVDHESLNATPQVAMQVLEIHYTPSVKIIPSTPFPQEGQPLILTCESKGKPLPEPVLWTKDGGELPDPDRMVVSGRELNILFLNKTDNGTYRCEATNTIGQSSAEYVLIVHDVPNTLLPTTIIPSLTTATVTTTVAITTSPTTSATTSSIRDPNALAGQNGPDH

[2] = target: T2, Nectin-like-5 (2530-CD-050, R&D Systems) (UniProt P15151 27-343, biotinylated); assay: SPR, biotinylated target on streptavidin surface
T2 sequence (looked up): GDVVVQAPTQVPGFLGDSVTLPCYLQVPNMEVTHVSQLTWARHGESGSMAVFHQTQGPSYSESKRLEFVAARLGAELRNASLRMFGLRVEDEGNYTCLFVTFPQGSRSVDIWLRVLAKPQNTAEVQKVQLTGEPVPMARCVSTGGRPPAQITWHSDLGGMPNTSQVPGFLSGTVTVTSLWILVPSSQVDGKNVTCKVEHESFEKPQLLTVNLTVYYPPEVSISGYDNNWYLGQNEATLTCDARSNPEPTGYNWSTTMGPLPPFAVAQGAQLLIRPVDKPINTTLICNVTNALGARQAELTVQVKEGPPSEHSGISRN

[3] = target: T3, Nectin-like-4 (4164-S4, R&D Systems) (UniProt Q8NFZ8 21-324, biotinylated); assay: SPR, biotinylated target on streptavidin surface
T3 sequence (looked up): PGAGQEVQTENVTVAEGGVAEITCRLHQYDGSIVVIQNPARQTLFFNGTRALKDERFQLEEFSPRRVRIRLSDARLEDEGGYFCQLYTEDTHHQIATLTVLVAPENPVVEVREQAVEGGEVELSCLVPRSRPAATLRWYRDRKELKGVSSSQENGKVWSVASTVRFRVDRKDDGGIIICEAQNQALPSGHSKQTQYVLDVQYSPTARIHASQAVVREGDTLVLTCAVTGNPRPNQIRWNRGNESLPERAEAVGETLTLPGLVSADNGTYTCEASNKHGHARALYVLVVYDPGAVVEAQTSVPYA

[4] = target: Nectin-3 (3064-N3, R&D Systems) (UniProt Q9NQS3 58-404, limits assumed, biotinylated); assay: SPR, biotinylated target on streptavidin surface
Chain of Nectin-3 (3064-N3, R&D Systems) (Q9NQS3 58-404 limits assumed): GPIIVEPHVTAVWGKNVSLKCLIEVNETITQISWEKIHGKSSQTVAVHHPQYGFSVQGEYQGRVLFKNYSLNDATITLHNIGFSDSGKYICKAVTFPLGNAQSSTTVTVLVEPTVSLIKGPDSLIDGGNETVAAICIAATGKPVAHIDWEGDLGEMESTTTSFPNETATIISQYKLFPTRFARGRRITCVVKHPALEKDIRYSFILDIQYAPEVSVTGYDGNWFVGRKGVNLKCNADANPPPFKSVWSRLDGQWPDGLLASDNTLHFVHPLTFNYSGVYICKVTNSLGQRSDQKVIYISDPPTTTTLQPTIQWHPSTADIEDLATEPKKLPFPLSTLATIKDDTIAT

[5] = target: T4, Nectin-like-1 (3678-S4-050, R&D Systems) (UniProt Q8N126 25-330, biotinylated); assay: SPR, biotinylated target on streptavidin surface
T4 sequence (looked up): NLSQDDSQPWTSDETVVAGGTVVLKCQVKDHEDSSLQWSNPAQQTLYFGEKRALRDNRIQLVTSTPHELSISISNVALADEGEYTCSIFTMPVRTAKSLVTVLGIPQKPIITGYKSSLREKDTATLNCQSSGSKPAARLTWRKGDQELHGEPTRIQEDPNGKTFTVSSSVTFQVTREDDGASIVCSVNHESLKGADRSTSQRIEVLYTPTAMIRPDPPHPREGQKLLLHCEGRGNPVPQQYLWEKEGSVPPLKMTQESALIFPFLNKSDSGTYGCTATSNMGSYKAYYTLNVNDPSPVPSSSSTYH

[6] = target: T5, rat CD137 extracellular domain (rat, UniProt Q4W8J3 24-189); assay: SPR dual binding, BCY11863 captured on biotinylated human Nectin-4, n = 2
T5 sequence: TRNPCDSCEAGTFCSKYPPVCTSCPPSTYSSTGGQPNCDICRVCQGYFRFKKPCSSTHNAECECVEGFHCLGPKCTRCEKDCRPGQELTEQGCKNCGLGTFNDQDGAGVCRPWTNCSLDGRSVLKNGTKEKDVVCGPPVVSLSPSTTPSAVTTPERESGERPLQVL

[7] = target: T6, mouse CD137 extracellular domain (mouse, UniProt P20334 24-187); assay: as above
T6 construct: extracellular domain
T6 sequence (looked up): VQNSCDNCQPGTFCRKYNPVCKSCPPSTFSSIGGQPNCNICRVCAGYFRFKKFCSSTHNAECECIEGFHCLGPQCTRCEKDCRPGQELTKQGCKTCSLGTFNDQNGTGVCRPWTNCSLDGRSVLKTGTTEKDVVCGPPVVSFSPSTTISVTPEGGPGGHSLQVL

[8] = target: T7, human CD137 extracellular domain (human, UniProt Q07011 24-186, biotinylated where captured on the streptavidin chip); assay: SPR, direct binding of BCY11863 to immobilized human CD137, 1:1 fit; avidity from two CD137 bicycles
T7 construct: extracellular domain; Section 17 says only 'Recombinant human CD137 (R&D systems)'; also called CD137 (human); Recombinant human CD137 (R&D systems)
T7 sequence (Q07011 24-186): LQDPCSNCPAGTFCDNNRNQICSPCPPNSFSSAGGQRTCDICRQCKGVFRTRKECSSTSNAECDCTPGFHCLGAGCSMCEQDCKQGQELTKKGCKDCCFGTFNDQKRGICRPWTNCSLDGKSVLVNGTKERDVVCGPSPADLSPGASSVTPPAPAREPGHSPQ

[9] = target: T8, rat Nectin-4 extracellular domain (rat, UniProt D3ZET1 31-348, biotinylated where captured on the streptavidin chip); assay: SPR direct binding, biotinylated Nectin-4 ECD on streptavidin chip, 25° C., n = 6
T8 construct: extracellular domain
T8 sequence: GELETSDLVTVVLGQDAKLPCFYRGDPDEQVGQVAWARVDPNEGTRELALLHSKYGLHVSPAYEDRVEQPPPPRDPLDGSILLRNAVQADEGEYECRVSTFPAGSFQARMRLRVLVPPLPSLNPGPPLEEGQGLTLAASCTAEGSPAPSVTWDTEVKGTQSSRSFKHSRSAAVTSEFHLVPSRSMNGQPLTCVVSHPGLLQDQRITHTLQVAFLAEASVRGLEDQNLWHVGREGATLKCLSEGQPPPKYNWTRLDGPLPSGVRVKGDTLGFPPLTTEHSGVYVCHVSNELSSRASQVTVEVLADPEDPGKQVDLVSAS

B1: heterotandem bicyclic peptide complex BCY11863 (peptide)
peptide 1: CP[1Nal][dD]CM[hArg]DWSTP[Hyp]WC
peptide 2: Ac-C[tBuAla]PE[dLys(PYA)]PYCFADPY[Nle]CA
modifications: linker I:1-I:5-I:15, II:1-II:8-II:15 via TATA; not fully specified (bridges); also: 1:2 complex: BCY8116 + 2x BCY8928
notes: also called Nectin-4/CD137 heterotandem
B1: no binding (tested: 5000 nM) [1]; no binding (tested: 5000 nM) [2]; no binding (tested: 5000 nM) [3]. B1: no binding (tested: 5000 nM) [4]; no binding (tested: 5000 nM) [5]; no binding [6]. For the same binder, the binding result [7] was “no binding”, the kon [8] was 952000 M⁻¹ s⁻¹ and the Kd [9] was 15 nM.
